As usually defined, the Kd is the equilibrium constant for the complex coming apart. Low values mean a tighter complex, high ones a looser complex.

Test [1] addresses nOVA (non-treated ovalbumin, 1 mg/ml in PBS) (chicken) (UniProt P01012). Nature of the test: ELISA, immobilized OVA forms, Fn F4-5 in solution; normalized to nOVA. Background: In an ELISA, binding on a coated surface is turned into a signal by an enzyme label.
Test [2] deals with cdH5-0 (dH5-0 supernatant after 10 min at 16,000-18,000*g) (influenza virus H5N1 strain A/Vietnam/1203/04). Kind of test: ELISA, immobilized H5 forms, Fn F4-5 in solution; normalized to cdH5-0.
Test [3] has as its target fdH5-0 (ultrafiltrated dH5-0, flow-through of a 1,000 kDa cut-off filter) (influenza virus H5N1 strain A/Vietnam/1203/04). The test is described as above.
Test [4] deals with dH5-I (cdH5-0 misfolded by heat cycling at pH 7) (influenza virus H5N1 strain A/Vietnam/1203/04). The description is as above.
The target of test [5] is dH5-III (cdH5-0 incubated about 16 h at 47.5 C) (influenza virus H5N1 strain A/Vietnam/1203/04). The description is as above.
For test [6], the target named is dH5-II (cdH5-0 misfolded by heat cycling at pH 2) (influenza virus H5N1 strain A/Vietnam/1203/04). The test is described as above.
For test [7], the target named is cdH5-0 (dH5-0 supernatant after 10 min at 16,000-18,000*g) (influenza virus H5N1 strain A/Vietnam/1203/04).
Test [8] addresses fdH5-0 (ultrafiltrated dH5-0, flow-through of a 1,000 kDa cut-off filter) (influenza virus H5N1 strain A/Vietnam/1203/04).
In test [9] the target is dH5-II (cdH5-0 misfolded by heat cycling at pH 2) (influenza virus H5N1 strain A/Vietnam/1203/04).
The target of test [10] is dOVA-1 (ovalbumin misfolded by HCl treatment, 40 min 37 C, neutralized) (chicken) (UniProt P01012). Kind of test: ELISA, immobilized OVA forms.

Take “fourth and fifth finger domain of fibronectin (Fn F4-5) (from UniProt P02751 183-275)”: the Normalized affinity, kD (%) came to 100% in [1]; 100% in test [2]; 69% in [3]; 0% in test [4]; 6% in test [5]; 88% in [6].

With “tissue type plasminogen activator (tPA) (from UniProt P00750 36-562) (enzyme)”, the results for the Bmax in test [7], in [8] and in test [9] were 0.36, 0.37 and 0.07, respectively. Moreover, the Kd came out at 102 nM in test [7], 342 nM in [8] and 19 nM in test [9].

The substance “monoclonal anti-OVA IgG (A6075, Sigma) (antibody)” yielded a Scaled antibody binding (relative affinity kD, a.u.) in [10] of 20.8 a.u.

The record behind these values is US20090191228A1.
